Experimental data: patent US20060165707A1

How the values were obtained:
[1] = target: … / HLA-A2 / β2m K58→E on T2 cells (human)
[2] = target: … / HLA-A2 / wild-type β2m on T2 cells (human)

Substance: HLA-A2 restricted parvovirus B19 specific CTL line (cells without a defined receptor)
- specific lysis (51Cr release), E:T 22:1, 4 hours [1]: 2.6%
- specific lysis (51Cr release), E:T 22:1, 4 hours [2]: 7.3%
